Measurements published in article PMC6052347, “Structure and Function of the Campylobacter jejuni Chromosome Replication Origin”.

Target: T1, 6HisCj1509 (Campylobacter jejuni 81116 (NCTC11828)?, UniProt Q0P820 1-295)
T1 sequence: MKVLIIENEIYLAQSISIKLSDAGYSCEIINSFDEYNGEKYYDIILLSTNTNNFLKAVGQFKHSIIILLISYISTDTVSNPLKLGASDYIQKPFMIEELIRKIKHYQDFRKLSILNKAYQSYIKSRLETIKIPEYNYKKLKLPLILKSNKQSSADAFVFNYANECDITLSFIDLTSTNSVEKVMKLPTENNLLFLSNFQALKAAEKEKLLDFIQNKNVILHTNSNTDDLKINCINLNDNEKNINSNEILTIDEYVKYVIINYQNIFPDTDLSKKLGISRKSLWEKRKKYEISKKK
Assay: EMSA; higher affinity than boxes 1 and 3; EMSA: room temperature, 15 min, up to 30 nM DnaA or 400 nM Cj1509, 4% PAGE in 1x TBE; box probes 0.4 uM; binding buffer not given (as in Jaworski 2016); DnaA with 5 mM ATP (footprinting) or 3 mM ATP (EM)
Settings: protein: recombinant; tags: N-terminal 6xHis (pET28a); chain copies: 2; label: FAM 5' on E7; blunt; three strands, nick between E7 and E10, E11 complementary to E7+E10

B1: Cj1509 box 2 probe (E7-E10-E11) (dsDNA)
DNA 1: GTGCCCTGGTCTGG
DNA 2: TTTGAAGAATGTTACAATTTCAACA
DNA 3: TGTTGAAATTGTAACATTCTTCAAACCAGACCAGGGCAC
binding result: binds
